Laboratory results taken from patent KR20200059381A.

Legend:
[1] = molecular target: 구제역 바이러스 혈청형 O 배양액(cal1~cal4) (Foot-and-mouth disease virus serotype O); test: sandwich ELISA, cal1, 1E58 coat 4 ug/ml, 1E58-HRP 0.4 ug/ml, 450 nm
[2] = molecular target: 구제역 바이러스 혈청형 O 배양액(cal1~cal4) (Foot-and-mouth disease virus serotype O); test: sandwich ELISA, cal2, 1E58 coat 4 ug/ml, 1E58-HRP 0.4 ug/ml, 450 nm
[3] = molecular target: FMDV 혈청형 SAT2 SAT2/ZIM/5/81 (Foot-and-mouth disease virus serotype SAT2); test: sandwich ELISA, 1E58 coat 4 ug/ml, 1E58-HRP 0.3 ug/ml, virus culture fluid
[4] = molecular target: FMDV 혈청형 O 진천 (Foot-and-mouth disease virus serotype O); test: as above
[5] = molecular target: FMDV 혈청형 A 연천주 (Foot-and-mouth disease virus serotype A); test: as above
[6] = molecular target: FMDV 혈청형 C C3/Resende/BRA/55 (Foot-and-mouth disease virus serotype C); test: as above
[7] = molecular target: FMDV 혈청형 O Yang-Ju (Foot-and-mouth disease virus serotype O); test: as above
[8] = molecular target: FMDV 혈청형 O O1 Manisa (Foot-and-mouth disease virus serotype O); test: as above
[9] = molecular target: FMDV 혈청형 O O/Hapcheon/KOR/2014 (Foot-and-mouth disease virus serotype O); test: as above
[10] = molecular target: FMDV 혈청형 O 보은 1차 (Foot-and-mouth disease virus serotype O); test: as above
[11] = molecular target: FMDV 혈청형 O Campos (Foot-and-mouth disease virus serotype O); test: as above
[12] = molecular target: FMDV 혈청형 A A22 Iraq (Foot-and-mouth disease virus serotype A); test: as above
[13] = molecular target: FMDV 혈청형 Asia1 CAM/9/80 (Foot-and-mouth disease virus serotype Asia1); test: as above
[14] = molecular target: FMDV 혈청형 O 김제 (Foot-and-mouth disease virus serotype O); test: as above
[15] = molecular target: FMDV 혈청형 O Yunlin/Taiwan/97 (Foot-and-mouth disease virus serotype O); test: as above
[16] = molecular target: 구제역 바이러스 혈청형 O 배양액(cal1~cal4) (Foot-and-mouth disease virus serotype O); test: sandwich ELISA, cal4, 1E58 coat 8 ug/ml, 1E58-HRP 0.2 ug/ml, 450 nm
[17] = molecular target: 구제역 바이러스 혈청형 O 배양액(cal1~cal4) (Foot-and-mouth disease virus serotype O); test: sandwich ELISA, cal2, 1E58 coat 4 ug/ml, 1E58-HRP 0.2 ug/ml, 450 nm
[18] = molecular target: 구제역 바이러스 혈청형 O 배양액(cal1~cal4) (Foot-and-mouth disease virus serotype O); test: sandwich ELISA, cal3, 1E58 coat 8 ug/ml, 1E58-HRP 0.2 ug/ml, 450 nm
[19] = molecular target: 구제역 바이러스 혈청형 O 배양액(cal1~cal4) (Foot-and-mouth disease virus serotype O); test: sandwich ELISA, cal2, 1E58 coat 1 ug/ml, 1E58-HRP 0.2 ug/ml, 450 nm
[20] = molecular target: 구제역 바이러스 혈청형 O 배양액(cal1~cal4) (Foot-and-mouth disease virus serotype O); test: sandwich ELISA, cal3, 1E58 coat 1 ug/ml, 1E58-HRP 0.4 ug/ml, 450 nm
[21] = molecular target: 구제역 바이러스 혈청형 O 배양액(cal1~cal4) (Foot-and-mouth disease virus serotype O); test: sandwich ELISA, cal1, 1E58 coat 4 ug/ml, 1E58-HRP 0.2 ug/ml, 450 nm
[22] = molecular target: 구제역 바이러스 혈청형 O 배양액(cal1~cal4) (Foot-and-mouth disease virus serotype O); test: sandwich ELISA, cal2, 1E58 coat 8 ug/ml, 1E58-HRP 0.2 ug/ml, 450 nm
[23] = molecular target: 구제역 바이러스 혈청형 O 배양액(cal1~cal4) (Foot-and-mouth disease virus serotype O); test: sandwich ELISA, cal3, 1E58 coat 2 ug/ml, 1E58-HRP 0.4 ug/ml, 450 nm
[24] = molecular target: 구제역 바이러스 혈청형 O 배양액(cal1~cal4) (Foot-and-mouth disease virus serotype O); test: sandwich ELISA, cal2, 1E58 coat 2 ug/ml, 1E58-HRP 0.4 ug/ml, 450 nm
[25] = molecular target: 구제역 바이러스 혈청형 O 배양액(cal1~cal4) (Foot-and-mouth disease virus serotype O); test: sandwich ELISA, cal1, 1E58 coat 2 ug/ml, 1E58-HRP 0.8 ug/ml, 450 nm
[26] = molecular target: 구제역 바이러스 혈청형 O 배양액(cal1~cal4) (Foot-and-mouth disease virus serotype O); test: sandwich ELISA, cal4, 1E58 coat 2 ug/ml, 1E58-HRP 0.2 ug/ml, 450 nm
[27] = molecular target: 구제역 바이러스 혈청형 O 배양액(cal1~cal4) (Foot-and-mouth disease virus serotype O); test: sandwich ELISA, cal2, 1E58 coat 4 ug/ml, 1E58-HRP 0.8 ug/ml, 450 nm
[28] = molecular target: 구제역 바이러스 혈청형 O 배양액(cal1~cal4) (Foot-and-mouth disease virus serotype O); test: sandwich ELISA, cal3, 1E58 coat 1 ug/ml, 1E58-HRP 0.8 ug/ml, 450 nm
[29] = molecular target: 불활화 FMDV 혈청형 O (Foot-and-mouth disease virus serotype O)
[30] = molecular target: 불활화 FMDV 혈청형 Asia1 (Foot-and-mouth disease virus serotype Asia1)
[31] = molecular target: 불활화 FMDV 혈청형 A (Foot-and-mouth disease virus serotype A)

B1: 단클론항체 1E58 (antibody, V domains shown)
VH: EFQLQQSRPELAKPGASVKISCKTSGHTFTTYTMHWVKQSHVKSLEWIGCFNPNNGGATYNQKFKGKATLTMDKSSNTAYVEVRSLTSDDSAVYYCAYGNYVNFDYWGQGTTLTVSS
VL: DIVLTQSPASLAVSLGQRATISYRASKSVSTSGYSYMHWNQQKPGQPPRLLIYLVSNLESGVPARFSGSGSGTDFTLNIHPVEEEDAATYYCQHIRELTRSEGGPSWKN
Question: What does the source list for B1?
Answer: O.D [1]: 3.15 O.D; O.D [2]: 3.08 O.D; O.D (450nm) [3]: 1.95 O.D; O.D (450nm) [4]: 4 O.D; O.D (450nm) [5]: 3.5 O.D; O.D (450nm) [6]: 3.75 O.D; O.D (450nm) [7]: 4 O.D; O.D (450nm) [8]: 4 O.D; O.D (450nm) [9]: 3.99 O.D; O.D (450nm) [10]: 3.64 O.D; O.D (450nm) [11]: 3.96 O.D; O.D (450nm) [12]: 3.79 O.D; O.D (450nm) [13]: 4 O.D; O.D (450nm) [14]: 4 O.D; O.D (450nm) [15]: 4 O.D; O.D [16]: 0.27 O.D; O.D [17]: 2.09 O.D; O.D [18]: 0.62 O.D; O.D [19]: 1.06 O.D; O.D [20]: 0.77 O.D; O.D [21]: 3.47 O.D; O.D [22]: 1.24 O.D; O.D [23]: 1.37 O.D; O.D [24]: 2.49 O.D; O.D [25]: 4 O.D; O.D [26]: 0.62 O.D; O.D [27]: 3.75 O.D; O.D [28]: 1.17 O.D; ELISA screening plate (O.D) [29]: 2.02 O.D; ELISA screening plate (O.D) [30]: 1.93 O.D; ELISA screening plate (O.D) [31]: 2.13 O.D
